Data on two molecules can be found in US20120093835A1 (DECIMMUNE THERAPEUTICS, published 2012).

Where no end group is shown, it is not given here.

The test has as its target T1, N2 peptide (Ac-LMKNMDPLNDNV), N2 self-peptide of Mouse NMHC-IIB (592-603) (mouse (the filing says the region is …, not fully specified; printed as Ac-LMKNMDPLNDNV).
T1 peptide: Ac-LMKNMDPLNDNV
The test can be described thus: not described (in vitro and in vivo binding of hybridoma antibody to N2 peptide).

B1: IgG^21G6 (21G6 IgG), antibody produced by murine B-cell hybridoma 21G6 (ATCC PTA-9393) (antibody, V domains shown)
VH: QVQLQESGAELVKPGASVKLSCKASGYTFTSYYMYWVKQRPGQGLEWIGGINPSNGGTNFNEKFKSKATLTVDKSSSTAYMQLSSLTSEDSAVYYCTRWGYDREWFAYWGQGTLVTVSA
VL: DIVMTQAAPSVPVTPGESVSISCRSSKSLLHSNGNTYLYWFLQRPGQSPQVLIYRMSNLASGVPDRFSGSGSGTAFTLRISRVEAEDVGVYYCMQHLEYPFTFGSGTKLEIKR
notes: also called anti-N2 mAb
Consider B1, for which the binding result is recorded as “binds”.

B2: IgG^12A6 (12A6 IgG), antibody produced by murine B-cell hybridoma 12A6 (ATCC PTA-9392) (antibody, V domains shown)
VH: QVTLKESGPGILQPSQTLSLTCSFSGFSLSTFGIGVGWIRQPSGKGLEWLAHIWWNDNNYYNTSLKSRLTISKDTSNNQVFLKIASVDTADTATYYCARVGGINFSMDYWGQGTSVTVSS
VL: DIVMTQSASSLAVSAGEKVTMNCKSSQSVLYSSNQKNYLAWYQQKPGQSPKLLIYWASTRESGVPDRFTGSGSGTDFTLTISSVQAEDLAVYYCHQYLSSWTFGGGTKLEIKR
notes: also called 12A6 hybridoma antibody; anti-N2 antibody (12A6)
In the case of B2, the binding result is recorded as “binds”.
